The values that follow come from patent publication US11932673B2, “Sodium channel inhibitors” (priority 2017, dated 2024).

In series [1] the test system is in vitro rat BBB model system. The format is in vitro ADME. Conditions: Fab format, oligoclonal mixes of 3 Fabs at final 2 μM, controls 1 μM, blood side to brain side, 37° C. The method, then:
In order to assess the ability of these KnotBodies to cross the BBB, a ready to use in vitro rat BBB model system (Pharmacocell, Cat. No. RBT-24H) was used. In this model system rat brain endothelial cells were co-cultured with pericytes and astrocytes to mimic the in vivo BBB anatomy (Nakagawa, S. et al. (2009) Neurochem. Int. 54, 253-263). The in vitro rat BBB kit was cultured according to manufacturer's instructions and transendothelial electrical resistance (TEER) was measured prior to testing of KnotBodies to verify the integrity of the barrier. […] 21 KnotBody Fabs were tested for their ability to cross the in vitro BBB model system. […] The parent KnotBody KB_A12 was used as a negative control. Both positive and negative controls were expressed and purified in the Fab format as described above. […] The concentration of transcytosed Fabs in the lower chamber (referred as brain side) was determined using a sandwich ELISA. In this ELISA, Fabs were captured using an anti-CH1 antibody (provided by Hybridoma Reagent Laboratories) and detected using rabbit anti-human IgG Kappa light chain antibody (Abcam, Cat. No. ab195576) or anti-human IgG Lambda light chain antibody (Abcam, Cat. No. ab124719) followed by europium conjugated anti-rabbit antibody (Perkin Elmer, Cat. No. AD0105). […]

For the next series, the system named is trypsin. The series is described as follows: Phage trypsin binding assay, KB_A12 versus EETI-II cow ULVC-Ab. Conditions: PEG precipitated phage, 12.5x and 0.5x. The source says:
Bovine antibodies have been described with natural ultra-long VH CDR3s containing a solvent exposed double stranded antiparallel sheet approximately 20 A° in length (referred to as the stalk) presenting a folded domain stabilised by 3 disulfide bonds (referred to as the Knob)^10. Zhang and colleagues have shown that the Knob domains of these cow ultra-long VH CDR3 antibodies (ULVC-Ab) can be replaced with other folded proteins such as erythropoietin^13. In this example, we assess the ability of a cow ULVC-Ab to present functional knottin fusions on phage in comparison with a KnotBody. In order to create a Knottin-cow UCLA fusion, the sequence between the first and the last cysteines of the knob region of the Cow ULVC-Ab BLV1H12 was replaced with the sequence of the trypsin binding knottin; EETI-II (EETI-II cow ULVC-Ab). A gene fragment encoding this construct was synthesised (Integrated DNA technologies, Table 21). This synthetic gene was cloned into the phage display vector pSANG4 using restriction sites NcoI and NotI and transformed into E. coli TG1 cells. […] In this assay, the binding of phage rescued from EETI-II cow ULVC-Ab and KB_A12 to trypsin was detected using an anti-M13 antibody followed by europium conjugated anti-mouse antibody (as described in example 3).

B1: KB_A12: EETI-II VL CDR2 KnotBody, D1A12 VH, VL SEQ ID NO: 105/373; parental/isotype control (antibody, V domains shown)
VH: EVQLVESGGGLVRPGGSLRLSCAASGFTFSSYAMSWVRQAPGKGLEWVSAISGSGGSTYYADSVKGRFTISRDNTKNSLYLQMTSLRADDTAFYYCVKDFGPGYGTGWFDYWGPGTLVTVSS
VL: QSVLTQPPSVSEAPRQRVTITCSGSSSNIGNNAVNWYQQLPGKAPKLLIYAAGRCPRILMRCKQDSDCLAGCVCGPNGFCGANSGVSDRFSAAKSGTSASLAINGLRSEDEADYYCAAWDDSLNGYVFGTGTKLTVLG
For B1, the “% transcytosis after 6 h” value in series [1] amounted to 0.1%. Further, in the series with trypsin, the “phage binding to trypsin” value is recorded as “superior binding to trypsin compared to the EET-II-Cow ULVC-Ab fusion”.
